# Measurements reported in the supplement of paper PMC9112550, “Optimization of the antimicrobial peptide Bac7 by deep mutational scanning” (BMC Biology, 2022).
# Test system: Escherichia coli TOP10
# Assay: shrunken log2 fold change of peptide-encoding DNA abundance (4.5 h post-induction vs induction); higher = less antimicrobial activity (less host growth inhibition)
# Conditions: time post-induction: 4.5 h; library: site-saturation at positions 5, 18, 19, 20
# 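Also: peptides expressed intracellularly from a pBAD plasmid library in pooled LB shake-flask culture, induced with 0.3% L-arabinose, DNA abundance read by NGS, three biological replicates, DESeq2 with apeglm shrinkage.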
row,Sequence,shrunken log2 fold change
1,RRIRARPPRLPRPRPRPSPQPRP,0.554
2,RRIRIRPPRLPRPRPRPTSMPRP,-0.0835
3,RRIRMRPPRLPRPRPRPVSRPRP,0.796
4,RRIRCRPPRLPRPRPRPFHKPRP,-0.0775
5,RRIRERPPRLPRPRPRPTHGPRP,0.0992
6,RRIRERPPRLPRPRPRPAKDPRP,-0.284
7,RRIRSRPPRLPRPRPRPWARPRP,0.0355
8,RRIRMRPPRLPRPRPRPWQQPRP,-0.0113
9,RRIRIRPPRLPRPRPRPFAGPRP,0.0391
10,RRIRMRPPRLPRPRPRPPLWPRP,1.31
11,RRIRDRPPRLPRPRPRPLVNPRP,0.426
12,RRIRARPPRLPRPRPRPSGYPRP,0.094
13,RRIRLRPPRLPRPRPRPDLDPRP,-0.0167
14,RRIRQRPPRLPRPRPRPPIGPRP,2.89
15,RRIRHRPPRLPRPRPRPITSPRP,-0.401
16,RRIRSRPPRLPRPRPRPQMHPRP,-0.351
17,RRIRNRPPRLPRPRPRPLYFPRP,-0.477
18,RRIRPRPPRLPRPRPRPMICPRP,-0.172
19,RRIRIRPPRLPRPRPRPRKEPRP,0.00489
20,RRIRDRPPRLPRPRPRPSHEPRP,-0.0403
21,RRIRKRPPRLPRPRPRPAYVPRP,0.108
22,RRIRERPPRLPRPRPRPPYDPRP,-1.12
23,RRIRGRPPRLPRPRPRPKYEPRP,0.56
24,RRIRIRPPRLPRPRPRPDTYPRP,-0.347
25,RRIRSRPPRLPRPRPRPMGWPRP,0.358

row,Sequence,shrunken log2 fold change
1,RRIRFRPPRLPRPRPRPHRDPRP,-0.36
2,RRIRPRPPRLPRPRPRPHQRPRP,-0.232
3,RRIRFRPPRLPRPRPRPGKPPRP,-0.0809
4,RRIRVRPPRLPRPRPRPHYRPRP,-0.0502
5,RRIRFRPPRLPRPRPRPFNLPRP,-0.66
6,RRIRHRPPRLPRPRPRPEIFPRP,-0.0725
7,RRIRSRPPRLPRPRPRPQQLPRP,-0.0917
8,RRIRGRPPRLPRPRPRPESCPRP,1.33
9,RRIRLRPPRLPRPRPRPCPSPRP,-0.00306
10,RRIRFRPPRLPRPRPRPWRAPRP,0.0757
11,RRIRHRPPRLPRPRPRPLFAPRP,0.107
12,RRIRFRPPRLPRPRPRPWNRPRP,-0.216
13,RRIRCRPPRLPRPRPRPNFYPRP,-0.228
14,RRIRARPPRLPRPRPRPEETPRP,-0.03
15,RRIRDRPPRLPRPRPRPHWSPRP,-0.132
16,RRIRPRPPRLPRPRPRPDVKPRP,-0.137
17,RRIRNRPPRLPRPRPRPMFSPRP,-0.186
18,RRIRRRPPRLPRPRPRPNLEPRP,0.442
19,RRIRWRPPRLPRPRPRPVLRPRP,0.106
20,RRIRKRPPRLPRPRPRPELAPRP,2.83
21,RRIRQRPPRLPRPRPRPRPAPRP,0.185
22,RRIRWRPPRLPRPRPRPVNQPRP,0.0575
23,RRIRSRPPRLPRPRPRPSKQPRP,-0.225
24,RRIRKRPPRLPRPRPRPVFEPRP,0.347
25,RRIRLRPPRLPRPRPRPYYSPRP,-0.309

row,Sequence,shrunken log2 fold change
1,RRIRDRPPRLPRPRPRPAYDPRP,0.0094
2,RRIRKRPPRLPRPRPRPMVMPRP,0.0746
3,RRIRSRPPRLPRPRPRPIGCPRP,-0.144
4,RRIRHRPPRLPRPRPRPDACPRP,-0.0498
5,RRIRIRPPRLPRPRPRPATHPRP,-0.165
6,RRIRHRPPRLPRPRPRPSDGPRP,-0.266
7,RRIRRRPPRLPRPRPRPLNEPRP,0.162
8,RRIRGRPPRLPRPRPRPDGVPRP,0.368
9,RRIRIRPPRLPRPRPRPKWTPRP,-0.116
10,RRIRQRPPRLPRPRPRPVCIPRP,-0.39
11,RRIRARPPRLPRPRPRPSNVPRP,-0.248
12,RRIRLRPPRLPRPRPRPVAFPRP,0.0295
13,RRIRARPPRLPRPRPRPCLWPRP,-0.199
14,RRIRVRPPRLPRPRPRPGNMPRP,0.151
15,RRIRARPPRLPRPRPRPKKEPRP,0.0428
16,RRIRMRPPRLPRPRPRPKNLPRP,-0.102
17,RRIRMRPPRLPRPRPRPWTTPRP,-0.0163
18,RRIRNRPPRLPRPRPRPPWMPRP,-0.00995
19,RRIRNRPPRLPRPRPRPFHIPRP,-0.0783
20,RRIRNRPPRLPRPRPRPKPPPRP,0.436
21,RRIRRRPPRLPRPRPRPAWLPRP,0.505
22,RRIRDRPPRLPRPRPRPKRHPRP,0.214
23,RRIRGRPPRLPRPRPRPVFGPRP,0.556
24,RRIRYRPPRLPRPRPRPTIRPRP,-0.336
25,RRIRWRPPRLPRPRPRPHYDPRP,-0.0735

row,Sequence,shrunken log2 fold change
1,RRIRGRPPRLPRPRPRPNYMPRP,-0.0439
2,RRIRCRPPRLPRPRPRPCVKPRP,-0.439
3,RRIRSRPPRLPRPRPRPWPMPRP,-0.111
4,RRIRARPPRLPRPRPRPAFTPRP,0.315
5,RRIRGRPPRLPRPRPRPFWRPRP,0.297
6,RRIRHRPPRLPRPRPRPWWVPRP,-0.136
7,RRIRRRPPRLPRPRPRPMMEPRP,-0.0732
8,RRIRCRPPRLPRPRPRPYQWPRP,-0.714
9,RRIRQRPPRLPRPRPRPCWMPRP,-0.408
10,RRIRVRPPRLPRPRPRPAIQPRP,-0.0625
11,RRIRIRPPRLPRPRPRPWHMPRP,-0.0375
12,RRIRDRPPRLPRPRPRPDLWPRP,-0.0295
13,RRIRRRPPRLPRPRPRPAQTPRP,0.348
14,RRIRQRPPRLPRPRPRPKWDPRP,-0.0672
15,RRIRARPPRLPRPRPRPKDVPRP,0.0479
16,RRIRRRPPRLPRPRPRPGCRPRP,0.459
17,RRIRWRPPRLPRPRPRPGYCPRP,-0.407
18,RRIRFRPPRLPRPRPRPLKDPRP,-0.276
19,RRIRARPPRLPRPRPRPEPAPRP,1.43
20,RRIRRRPPRLPRPRPRPHCNPRP,-0.135
21,RRIRQRPPRLPRPRPRPHELPRP,-0.00752
22,RRIRPRPPRLPRPRPRPSYWPRP,-0.277
23,RRIRFRPPRLPRPRPRPQNWPRP,-0.148
24,RRIRTRPPRLPRPRPRPVAPPRP,0.389
25,RRIRQRPPRLPRPRPRPCQLPRP,-0.0105

row,Sequence,shrunken log2 fold change
1,RRIRKRPPRLPRPRPRPRPYPRP,0.182
2,RRIRVRPPRLPRPRPRPATNPRP,-0.301
3,RRIRWRPPRLPRPRPRPNDLPRP,0.0302
4,RRIRCRPPRLPRPRPRPQTCPRP,0.034
5,RRIRVRPPRLPRPRPRPVLHPRP,-0.243
6,RRIRFRPPRLPRPRPRPMRPPRP,0.654
7,RRIRFRPPRLPRPRPRPYRYPRP,0.0548
8,RRIRNRPPRLPRPRPRPLALPRP,-0.239
9,RRIRDRPPRLPRPRPRPKRKPRP,0.0894
10,RRIRNRPPRLPRPRPRPHTPPRP,-0.317
11,RRIRKRPPRLPRPRPRPWRIPRP,0.0387
12,RRIRMRPPRLPRPRPRPCKTPRP,-0.00146
13,RRIRPRPPRLPRPRPRPEECPRP,-0.105
14,RRIRRRPPRLPRPRPRPKFAPRP,0.283
15,RRIRPRPPRLPRPRPRPMNSPRP,-0.125
16,RRIRTRPPRLPRPRPRPREWPRP,0.259
17,RRIRNRPPRLPRPRPRPLKMPRP,-0.136
18,RRIRFRPPRLPRPRPRPTWRPRP,0.587
19,RRIRKRPPRLPRPRPRPDGGPRP,0.157
20,RRIRSRPPRLPRPRPRPNWEPRP,0.015
21,RRIRDRPPRLPRPRPRPLPHPRP,-0.146
22,RRIRRRPPRLPRPRPRPMHEPRP,0.213
23,RRIRMRPPRLPRPRPRPNGPPRP,0.114
24,RRIRGRPPRLPRPRPRPHGNPRP,0.365
25,RRIRMRPPRLPRPRPRPGAYPRP,0.0666

row,Sequence,shrunken log2 fold change
1,RRIRDRPPRLPRPRPRPTHVPRP,0.244
2,RRIRPRPPRLPRPRPRPERYPRP,0.378
3,RRIRPRPPRLPRPRPRPQNYPRP,-0.395
4,RRIRIRPPRLPRPRPRPIVYPRP,-0.383
5,RRIRSRPPRLPRPRPRPAQPPRP,0.181
6,RRIRRRPPRLPRPRPRPYCLPRP,-0.574
7,RRIRRRPPRLPRPRPRPDMYPRP,-0.315
8,RRIRARPPRLPRPRPRPWLYPRP,-0.0506
9,RRIRRRPPRLPRPRPRPKAGPRP,0.319
10,RRIRWRPPRLPRPRPRPEMTPRP,-0.0833
11,RRIRVRPPRLPRPRPRPNWVPRP,0.213
12,RRIRARPPRLPRPRPRPYGSPRP,-0.0423
13,RRIRYRPPRLPRPRPRPHGWPRP,-0.0273
14,RRIRFRPPRLPRPRPRPNDWPRP,-0.271
15,RRIRARPPRLPRPRPRPLWEPRP,0.745
16,RRIRIRPPRLPRPRPRPCAPPRP,-0.506
17,RRIRFRPPRLPRPRPRPYPAPRP,-0.512
18,RRIRQRPPRLPRPRPRPWNMPRP,-0.086
19,RRIRVRPPRLPRPRPRPFYGPRP,-0.127
20,RRIRFRPPRLPRPRPRPLMHPRP,-0.246
21,RRIRVRPPRLPRPRPRPQVKPRP,-0.016
22,RRIRFRPPRLPRPRPRPYCKPRP,-0.243
23,RRIRFRPPRLPRPRPRPCTCPRP,-0.187
24,RRIRGRPPRLPRPRPRPNWHPRP,0.27
25,RRIRTRPPRLPRPRPRPTTHPRP,0.05
